± gives the uncertainty stated by the source.
B1: Gamma-crystallin C, residues 4 to 79; numbered along this chain, P07315 (parent)
chain: ITFYEDRAFQGRSYETTTDCPNLQPYFSRCNSIRVESGCWMLYERPNYQGQQYLLRRGEYPDYQQWMGLSDSIRSC

Variants of: B1
Test: abundance fitness (aPCA) (normalised: wild type 0, dead -1); higher = more abundant; growth selection in yeast, the domain comes from the species named
Settings: Homo sapiens

Row | Variant | abundance fitness
1 | ITFYDDRAFQGRSYETTTDCPNLQPYFSRCNSIRVESGCWMLYERPNYQGQQYLLRRGEYPDYQQWMGLSDSIRSC | -0.008 ± 0.15
2 | ITFYKDRAFQGRSYETTTDCPNLQPYFSRCNSIRVESGCWMLYERPNYQGQQYLLRRGEYPDYQQWMGLSDSIRSC | -0.162 ± 0.16
3 | ITFYQDRAFQGRSYETTTDCPNLQPYFSRCNSIRVESGCWMLYERPNYQGQQYLLRRGEYPDYQQWMGLSDSIRSC | -0.076 ± 0.17
4 | ITFYLDRAFQGRSYETTTDCPNLQPYFSRCNSIRVESGCWMLYERPNYQGQQYLLRRGEYPDYQQWMGLSDSIRSC | -0.334 ± 0.16
5 | ITFYIDRAFQGRSYETTTDCPNLQPYFSRCNSIRVESGCWMLYERPNYQGQQYLLRRGEYPDYQQWMGLSDSIRSC | 0.122 ± 0.2
6 | ITFYEARAFQGRSYETTTDCPNLQPYFSRCNSIRVESGCWMLYERPNYQGQQYLLRRGEYPDYQQWMGLSDSIRSC | -0.103 ± 0.11
7 | ITFYECRAFQGRSYETTTDCPNLQPYFSRCNSIRVESGCWMLYERPNYQGQQYLLRRGEYPDYQQWMGLSDSIRSC | 0.069 ± 0.19
8 | IYFYEDRAFQGRSYETTTDCPNLQPYFSRCNSIRVESGCWMLYERPNYQGQQYLLRRGEYPDYQQWMGLSDSIRSC | 0.088 ± 0.34
9 | ILFYEDRAFQGRSYETTTDCPNLQPYFSRCNSIRVESGCWMLYERPNYQGQQYLLRRGEYPDYQQWMGLSDSIRSC | -0.15 ± 0.097
10 | ICFYEDRAFQGRSYETTTDCPNLQPYFSRCNSIRVESGCWMLYERPNYQGQQYLLRRGEYPDYQQWMGLSDSIRSC | -0.054 ± 0.35
11 | IEFYEDRAFQGRSYETTTDCPNLQPYFSRCNSIRVESGCWMLYERPNYQGQQYLLRRGEYPDYQQWMGLSDSIRSC | -0.473 ± 0.15
12 | IFFYEDRAFQGRSYETTTDCPNLQPYFSRCNSIRVESGCWMLYERPNYQGQQYLLRRGEYPDYQQWMGLSDSIRSC | 0.101 ± 0.32
13 | IMFYEDRAFQGRSYETTTDCPNLQPYFSRCNSIRVESGCWMLYERPNYQGQQYLLRRGEYPDYQQWMGLSDSIRSC | -0.116 ± 0.42
14 | IIFYEDRAFQGRSYETTTDCPNLQPYFSRCNSIRVESGCWMLYERPNYQGQQYLLRRGEYPDYQQWMGLSDSIRSC | 0.093 ± 0.25
15 | IPFYEDRAFQGRSYETTTDCPNLQPYFSRCNSIRVESGCWMLYERPNYQGQQYLLRRGEYPDYQQWMGLSDSIRSC | -0.838 ± 0.17
16 | IAFYEDRAFQGRSYETTTDCPNLQPYFSRCNSIRVESGCWMLYERPNYQGQQYLLRRGEYPDYQQWMGLSDSIRSC | -0.254 ± 0.098
17 | IRFYEDRAFQGRSYETTTDCPNLQPYFSRCNSIRVESGCWMLYERPNYQGQQYLLRRGEYPDYQQWMGLSDSIRSC | -0.145 ± 0.099
18 | IGFYEDRAFQGRSYETTTDCPNLQPYFSRCNSIRVESGCWMLYERPNYQGQQYLLRRGEYPDYQQWMGLSDSIRSC | -0.329 ± 0.093
19 | INFYEDRAFQGRSYETTTDCPNLQPYFSRCNSIRVESGCWMLYERPNYQGQQYLLRRGEYPDYQQWMGLSDSIRSC | -0.002 ± 0.33
20 | IQFYEDRAFQGRSYETTTDCPNLQPYFSRCNSIRVESGCWMLYERPNYQGQQYLLRRGEYPDYQQWMGLSDSIRSC | -0.114 ± 0.16
21 | IVFYEDRAFQGRSYETTTDCPNLQPYFSRCNSIRVESGCWMLYERPNYQGQQYLLRRGEYPDYQQWMGLSDSIRSC | 0.049 ± 0.13
22 | IWFYEDRAFQGRSYETTTDCPNLQPYFSRCNSIRVESGCWMLYERPNYQGQQYLLRRGEYPDYQQWMGLSDSIRSC | -0.201 ± 0.12
23 | IKFYEDRAFQGRSYETTTDCPNLQPYFSRCNSIRVESGCWMLYERPNYQGQQYLLRRGEYPDYQQWMGLSDSIRSC | -0.039 ± 0.12
24 | LTFYEDRAFQGRSYETTTDCPNLQPYFSRCNSIRVESGCWMLYERPNYQGQQYLLRRGEYPDYQQWMGLSDSIRSC | -0.4 ± 0.38
25 | VTFYEDRAFQGRSYETTTDCPNLQPYFSRCNSIRVESGCWMLYERPNYQGQQYLLRRGEYPDYQQWMGLSDSIRSC | -0.032 ± 0.27
26 | TTFYEDRAFQGRSYETTTDCPNLQPYFSRCNSIRVESGCWMLYERPNYQGQQYLLRRGEYPDYQQWMGLSDSIRSC | -0.722 ± 0.3
27 | MTFYEDRAFQGRSYETTTDCPNLQPYFSRCNSIRVESGCWMLYERPNYQGQQYLLRRGEYPDYQQWMGLSDSIRSC | -0.291 ± 0.16
28 | ITFWEDRAFQGRSYETTTDCPNLQPYFSRCNSIRVESGCWMLYERPNYQGQQYLLRRGEYPDYQQWMGLSDSIRSC | -0.094 ± 0.13

Row | Variant | abundance fitness
29 | ITFLEDRAFQGRSYETTTDCPNLQPYFSRCNSIRVESGCWMLYERPNYQGQQYLLRRGEYPDYQQWMGLSDSIRSC | -0.984 ± 0.16
30 | ITFAEDRAFQGRSYETTTDCPNLQPYFSRCNSIRVESGCWMLYERPNYQGQQYLLRRGEYPDYQQWMGLSDSIRSC | -0.989 ± 0.15
31 | ITFGEDRAFQGRSYETTTDCPNLQPYFSRCNSIRVESGCWMLYERPNYQGQQYLLRRGEYPDYQQWMGLSDSIRSC | -0.863 ± 0.14
32 | ITFPEDRAFQGRSYETTTDCPNLQPYFSRCNSIRVESGCWMLYERPNYQGQQYLLRRGEYPDYQQWMGLSDSIRSC | -1.12 ± 0.34
33 | ITFFEDRAFQGRSYETTTDCPNLQPYFSRCNSIRVESGCWMLYERPNYQGQQYLLRRGEYPDYQQWMGLSDSIRSC | 0.333 ± 0.4
34 | ITFSEDRAFQGRSYETTTDCPNLQPYFSRCNSIRVESGCWMLYERPNYQGQQYLLRRGEYPDYQQWMGLSDSIRSC | -0.725 ± 0.12
35 | ITFQEDRAFQGRSYETTTDCPNLQPYFSRCNSIRVESGCWMLYERPNYQGQQYLLRRGEYPDYQQWMGLSDSIRSC | -1.01 ± 0.39
36 | ITFNEDRAFQGRSYETTTDCPNLQPYFSRCNSIRVESGCWMLYERPNYQGQQYLLRRGEYPDYQQWMGLSDSIRSC | -0.631 ± 0.28
37 | ITFHEDRAFQGRSYETTTDCPNLQPYFSRCNSIRVESGCWMLYERPNYQGQQYLLRRGEYPDYQQWMGLSDSIRSC | -0.364 ± 0.13
38 | ITFEEDRAFQGRSYETTTDCPNLQPYFSRCNSIRVESGCWMLYERPNYQGQQYLLRRGEYPDYQQWMGLSDSIRSC | -0.848 ± 0.27
39 | ITFVEDRAFQGRSYETTTDCPNLQPYFSRCNSIRVESGCWMLYERPNYQGQQYLLRRGEYPDYQQWMGLSDSIRSC | -1.11 ± 0.17
40 | ITFKEDRAFQGRSYETTTDCPNLQPYFSRCNSIRVESGCWMLYERPNYQGQQYLLRRGEYPDYQQWMGLSDSIRSC | -0.862 ± 0.31
41 | ITFREDRAFQGRSYETTTDCPNLQPYFSRCNSIRVESGCWMLYERPNYQGQQYLLRRGEYPDYQQWMGLSDSIRSC | -0.99 ± 0.16
42 | ITQYEDRAFQGRSYETTTDCPNLQPYFSRCNSIRVESGCWMLYERPNYQGQQYLLRRGEYPDYQQWMGLSDSIRSC | -0.94 ± 0.23
43 | ITRYEDRAFQGRSYETTTDCPNLQPYFSRCNSIRVESGCWMLYERPNYQGQQYLLRRGEYPDYQQWMGLSDSIRSC | -1.18 ± 0.28
44 | ITPYEDRAFQGRSYETTTDCPNLQPYFSRCNSIRVESGCWMLYERPNYQGQQYLLRRGEYPDYQQWMGLSDSIRSC | -1 ± 0.36
45 | ITVYEDRAFQGRSYETTTDCPNLQPYFSRCNSIRVESGCWMLYERPNYQGQQYLLRRGEYPDYQQWMGLSDSIRSC | -1.08 ± 0.13
46 | ITLYEDRAFQGRSYETTTDCPNLQPYFSRCNSIRVESGCWMLYERPNYQGQQYLLRRGEYPDYQQWMGLSDSIRSC | -0.036 ± 0.078
47 | ITTYEDRAFQGRSYETTTDCPNLQPYFSRCNSIRVESGCWMLYERPNYQGQQYLLRRGEYPDYQQWMGLSDSIRSC | -0.753 ± 0.27
48 | ITCYEDRAFQGRSYETTTDCPNLQPYFSRCNSIRVESGCWMLYERPNYQGQQYLLRRGEYPDYQQWMGLSDSIRSC | -0.586 ± 0.13
49 | ITMYEDRAFQGRSYETTTDCPNLQPYFSRCNSIRVESGCWMLYERPNYQGQQYLLRRGEYPDYQQWMGLSDSIRSC | -0.071 ± 0.085
50 | ITGYEDRAFQGRSYETTTDCPNLQPYFSRCNSIRVESGCWMLYERPNYQGQQYLLRRGEYPDYQQWMGLSDSIRSC | -1.23 ± 0.23
51 | ITKYEDRAFQGRSYETTTDCPNLQPYFSRCNSIRVESGCWMLYERPNYQGQQYLLRRGEYPDYQQWMGLSDSIRSC | -0.991 ± 0.27
52 | ITSYEDRAFQGRSYETTTDCPNLQPYFSRCNSIRVESGCWMLYERPNYQGQQYLLRRGEYPDYQQWMGLSDSIRSC | -1.01 ± 0.27
53 | ITWYEDRAFQGRSYETTTDCPNLQPYFSRCNSIRVESGCWMLYERPNYQGQQYLLRRGEYPDYQQWMGLSDSIRSC | -0.789 ± 0.14
54 | ITIYEDRAFQGRSYETTTDCPNLQPYFSRCNSIRVESGCWMLYERPNYQGQQYLLRRGEYPDYQQWMGLSDSIRSC | -0.368 ± 0.18
55 | ITNYEDRAFQGRSYETTTDCPNLQPYFSRCNSIRVESGCWMLYERPNYQGQQYLLRRGEYPDYQQWMGLSDSIRSC | -0.826 ± 0.21
